According to patent publication US20140308316A1, “ANTIGEN PRESENTING CANCER VACCINE WITH GAMMA INTERFERON” (CALIFORNIA STEM CELL, INC., priority 2011, published 2014):

What was measured:
melanoma cell lines = assay: Apoptosis by flow cytometry using 7-AAD and annexin-V; format: cell-based; settings: pan caspase inhibitor with IFN-gamma
Procedure: (§1) The methodology of the study was as follows. Autologous and model melanoma tumor cell lines were incubated with 1000 IU/mL of IFN-gamma for 72 hours prior to assaying for autophagy, apoptosis and MHC class II expression. Autophagy was detected by immunobloting with antibodies against LC3 II and by flow cytometry with Enzo's CytoID® Autophagy Detection Kit. Apoptosis and MHC class II induction were assayed by flow cytometry using 7-AAD and annexin-V staining and antibodies against MHC class II, respectively.
Analysis of tumor cell death and changes in major histocompatibility class II expression in response to IFN-gamma were conducted by use of antibodies directed against MHC class II, annexin-V and 7-amino-actinomycin D (7-AAD) and acquired on a Beckton-Dickenson FACS Calibur® flow cytometer.
What was investigated was the induction of autophagy, apoptosis and MHC class II molecules after IFN-gamma treatment of melanoma tumor cells in vitro. Autologous and model melanoma tumor cell lines were incubated with 1000 IU/mL of IFN-gamma for 72 hours prior to assaying for autophagy, apoptosis and MHC class II expression. Autophagy was detected by immunobloting with antibodies against LC3 II and by flow cytometry with Enzo's CytoID Autophagy Detection Kit. […]

SK-5-Mel cells [1] = assay: Autophagy by flow cytometry with Enzo Cyto-ID Autophagy Detection Dye; format: cell-based; settings: for effect on autophagy in IFN-gamma treated cells: z-VAD 20 uM with 1000 IU/mL IFN-gamma, 72 hours
Procedure: FIGS. 6A and 6B reveal apoptosis and autophagy induced in response to interferon-gamma. SK-5-Mel cells were incubated with 1000 IU/mL of IFN-gamma for 72 hours after which non-adherent and adherent populations were collected and assayed for apoptosis and autophagy by flow cytometry using 7-AAD and Annexin-V (FIG. 6A). Enzo Cyto-ID Autophagy Detection Dye was used to measure autophagy by flow cytometry by measuring the mean intensity peak shift of dye provided by the manufacturer (FIG. […]). Fold changes in the peak shift in comparison to 5% FBS/RPMI are shown in FIG. 6C with serum-free as positive control for the induction of autophagy.
SK-5-Mel cells were treated with 1000 IU/mL of IFN-gamma in the presence of 20 uM of the pan-caspase inhibitor z-VAD or its control compound, z-FA for 72 hours. The cells were harvested and assayed for autophagy by flow cytometry as in FIG. 6C.
as §1
(§2) The commercially available melanoma cell lines A375, SK-Mel-5 and SK-Mel-28 were purchased from American Type Culture Collection (Catalogue numbers: CRL-1619, HTB-70, and HTB-72). A375, SK-Mel-5, and SK-Mel-28 were maintained in 5% fetal bovine serum in RPMI-1640 (Invitrogen, catalogue number 11875-085). […]
(§3) What was investigated was the induction of autophagy, apoptosis and MHC class II molecules after IFN-gamma treatment of melanoma tumor cells in vitro. […] Autophagy was detected by immunobloting with antibodies against LC3 II and by flow cytometry with Enzo's CytoID Autophagy Detection Kit. […]

MHC class II = assay: Flow cytometry for MHC class II on IFN-gamma treated autologous tumor cells; format: cell-based, human
Procedure: (§4) FIGS. 2A-D show characterization of IFN-gamma treated autologous tumor cells used for loading dendritic cells. Autologous melanoma tumor cells were treated with or without 1000 IU/mL IFN-gamma for 72 hours in 15% FBS/ECS in RPMI, harvested and irradiated with 100 Gy and cryopreserved. Cells were then thawed in AIMV and a sample taken for flow cytometry and for preparation of cell lysates for immunoblotting prior to antigen loading of DCs. An example of four separate autologous melanoma cell lines is shown (FIG. 2A, FIG. 2B and FIG. 2C). Induction major histocompatibility complexes by IFN-gamma treatment of autologous tumor cells (FIG. 2D). Tumor cells were harvested after being treated with or without 1000 IU/mL IFN-gamma for 72 hours and then assayed for MHC class I and class II. Control isotype antibodies were used to identify positive populations. Dark data points indicate median mean fluorescent plus/minus 95% confidence interval, N=65. […]

MHC class I = assay: Flow cytometry for MHC class I on IFN-gamma treated autologous tumor cells; format: cell-based, human; settings: 1000 IU/mL IFN-gamma 72 hours, N=65, p=2.8×10^−8
Procedure: as §4

SK-5-Mel cells [2] = assay: MHC class II (HLA-DR) expression by flow cytometry with autophagy inhibitor 3-MA; format: cell-based; settings: 1000 IU/mL IFN-gamma 72 hours; 3-MA 10 uM where present
Procedure: The cells were then harvested and assayed for apoptosis and MHC class II (HLA-DR) expression by flow cytometry.
as §1, §2, §3

[3] = system: autologous melanoma cell lines; assay: Immunoblot of lysates from melanoma cells incubated with or without IFN-gamma; format: cell-based, human; settings: IFN-gamma treated vs untreated
Procedure: FIGS. 2A-D show characterization of IFN-gamma treated autologous tumor cells used for loading dendritic cells. Autologous melanoma tumor cells were treated with or without 1000 IU/mL IFN-gamma for 72 hours in 15% FBS/ECS in RPMI, harvested and irradiated with 100 Gy and cryopreserved. Cells were then thawed in AIMV and a sample taken for flow cytometry and for preparation of cell lysates for immunoblotting prior to antigen loading of DCs. An example of four separate autologous melanoma cell lines is shown (FIG. 2A, FIG. 2B and FIG. 2C). Induction major histocompatibility complexes by IFN-gamma treatment of autologous tumor cells (FIG. 2D). Tumor cells were harvested after being treated with or without 1000 IU/mL IFN-gamma for 72 hours and then assayed for MHC class I and class II. Control isotype antibodies were used to identify positive populations. Dark data points indicate median mean fluorescent plus/minus 95% confidence interval, N=65.
Cytoplasmic cell lysates were prepared with Mammalian Protein Extraction Reagent (Thermo Scientific, Rockford, Ill.) plus protease inhibitor cocktail (Roche, Indianapolis, Ind.) at 10,000 cells/uL on ice. Approximately 25 uLs/lane of cell lysates were separated on 12.5% tris-glycine gels, transferred to PVDF membrane and probed with antibodies against the following: calreticulin (MBL, Woburn, Mass.), Hsp-60, Hsp-70, Hsp-90 (R&D Systems, Minneapolis, Minn.), HMBG-1 (Cell Signaling, Danvers, Mass.), ICAM-1 (Santa Cruz Biotech, Santa Cruz, Calif.), Mel-4, Mart-1 (Signet, Emeryville, Calif.), tyrosinase (Upstate, Lake Placid, N.Y.) and GADPH (Calbiochem, Darmstadt, Germany).
Lysates from cells that were incubated in the presence or absence of IFN-gamma were subjected to immunoblotting for a variety of molecules that may be important mediators of immunity (FIG. 1B). In the setting of melanoma cells treated with IFN-gamma, heat shock proteins appear to be differentially regulated but remain largely present in the cell preparations, especially in the case of hsp-70.

[4] = system: melanoma cell lines used in patient-specific dendritic cell therapy; assay: Immunohistochemistry of tumor associated antigens in melanoma lines with or without IFN-gamma; format: cell-based, human; settings: 1000 IU/mL IFN-gamma, 72 hours, N=27 samples
Procedure: Expression of a panel antigens by melanoma lines were determined using immunocytochemical procedure. Ceils were cultured in 8-chamber culture slides (Thermo Fisher, Rochester, N.Y.) in the presence or absence of 1000 IU/mL IFN-gamma. After 72 hours, the cells were washed 3 times with 1× Phosphate Buffered Saline (PBS) and fixed in cold acetone. After blocking endogenous peroxidase, cells were incubated with appropriate primary antibodies against the antigens listed. Immunohistochemistry was performed using biotinylated antimouse or rabbit immunoglobulins. Super Sensitive enzyme-conjugated streptavidin labeling and horse radish peroxidase chromogen, and substrate kits (Biogenex, San Ramon, Calif.). The reactivity of the following anti-human polyclonal or monoclonal antibodies was investigated with isotype matched control antibody: S-100 and HMB-45 (Biogenex, San Ramon, Calif.), Mel-2, Mel-5, Mart-1 (Signet, Dedham, Mass.), Tyrosinase and Mage-1 (Thermo Scientific, Fremont, Calif.), Melan-A, HLA-class I and HLA-class II (Dako Denmark).
Table I: Change in the expression level of common tumor associated antigens in response to interferon-gamma in melanoma cell lines used patient-specific cell based dendritic cell therapy.

melanoma tumor cells = assay: Sensitivity of IFN-gamma treated melanoma tumor cells to cytotoxic T lymphocyte activity; format: cell-based

carbobenzoxy-valyl-alanyl-aspartyl-[O-methyl]-fluoromethylketone [Z-VAD]
effect on apoptosis in IFN-gamma treated cells (melanoma cell lines): prevents apoptosis | effect on autophagy in IFN-gamma treated cells (SK-5-Mel cells [1]): does not perturb autophagy | effect on autophagy in IFN-gamma treated cells (SK-5-Mel cells [1]; listed as z-VAD): did not affect

B1: interferon-gamma (protein, UniProt P01579 24-161, looked up)
Interferon gamma: QDPYVKEAENLKKYFNAGHSDVADNGTLFLGILKNWKEESDRKIMQSQIVSFYFKLFKNFKDDQSIQKSVETIKEDMNVKFFNSNKKKRDDFEKLTNYSVTDLNVQRKAIHELIQVMAELSPAAKTGKRKRSQMLFRG
notes: interferon-gamma (InterMune), type II interferon, used at 1000 IU/mL for 72 hours on tumor cells
MHC class II mean fluorescence intensity, median induction (95% C.I.) (MHC class II; 1000 IU/mL IFN-gamma 72 hours, N=65, p=0.039): 4.23±2.66 | cases with MHC class II induction greater than two fold (MHC class II; in response to IFN-gamma treatment): 70% | MHC class I median fold induction (95% C.I.) (MHC class I): 2.91±1.13 fold | MHC class II positive cells (SK-5-Mel cells [2]): 39.4% | autophagy, fold change (SK-5-Mel cells [1]; 1000 IU/mL IFN-gamma 72 hours, z-VAD 20 uM where present, peak shift vs 5% FBS/RPMI): 2.75±0.15 fold change | ICAM-1 expression [3]: significantly up-regulated | calreticulin and high-mobility group box-1 protein expression [3]: up-regulated in some cases | common melanoma antigens (mel-4, Mart-1 and tyrosinase) expression [3]: down regulated | Change after IFN-gamma treatment: None ([4]; HMB-45): 54.5% | Change after IFN-gamma treatment: Down ([4]; MAGE-1): 81.5% | Change after IFN-gamma treatment: None ([4]; MAGE-1): 38.5% | Change after IFN-gamma treatment: Down ([4]; MART-1): 85.2% | Change after IFN-gamma treatment: None ([4]; MART-1): 14.8% | Change after IFN-gamma treatment: Down ([4]; Mel-2): 53.8% | Change after IFN-gamma treatment: None ([4]; Mel-2): 48.2% | Change after IFN-gamma treatment: Down ([4]; Mel-5): 27.3% | Change after IFN-gamma treatment: None ([4]; Mel-5): 72.7% | Change after IFN-gamma treatment: Down ([4]; Melan-A): 70.8% | Change after IFN-gamma treatment: None ([4]; Melan-A): 29.2% | Change after IFN-gamma treatment: Down ([4]; S-100): 57.1% | Change after IFN-gamma treatment: None ([4]; S-100): 42.9% | Change after IFN-gamma treatment: Down ([4]; Tyrosinase): 80.0% | Change after IFN-gamma treatment: None ([4]; Tyrosinase): 40.0% | sensitivity to cytotoxic T lymphocyte (CTL) activity (melanoma tumor cells): more sensitive
